Here are results for 18 molecules from patent publication US20140011207, “PSA BINDING APTAMER AND METHOD FOR DIAGNOSIS OF PROSTATE CANCER” (National University Corporation Tokyo University of …, published 2014).

Data set [1] deals with T1, Prostate-specific antigen (PSA, KLK3) (Homo sapiens, UniProt P07288 P07288:25-261). As to the kind of experiment: ELONA; rank 1 of 1st generation; 1st generation up to 10-fold higher than parents. Particulars: tags: purified from human semen; Sigma-Aldrich and Scipac; label: 5'-FITC. The procedure:
(§1) 100 μL amounts of PSA in PBS buffer (pH 7.4), at final concentration of 5 μg/mL, were added to a 96-well polystyrene plate. After 2 h incubation with gentle shaking at 37° C., the supernatant was removed and each well was washed with TBST buffer. Each well was filled with 100 μl of five-fold-diluted blocking reagent N102 and incubated with gentle shaking for 1 h at room temperature, and then washed three times. FITC-labeled aptamer was heat treated in TBS buffer as described above for folding. To each well 100 μL amounts of the FITC-labeled aptamer in TBST buffer (5 μM) were added and incubated for 1 h at room temperature. […] Each well was washed five times and BM chemiluminescence HRP substrate was added, then the HRP activity was measured by a multi label plate counter: Wallac 1420 ARVO MX (Perkin Elmer).
(§2) In order to carry out a post-SELEX screening of aptamers using GA with candidates, the five sequences pre-selected through SELEX were used as “parents” to produce a set of 20 oligonucleotide sequences using GA. These oligonucleotides were synthesized and the PSA-binding ability was evaluated by plate assay. The PSA-binding ability was measured by detection chemiluminescence from HRP-conjugated anti-FITC antibody that represented the binding of oligonucleotides against PSA immobilized on a well of polystyrene plate (n=2). […]

Data set [2] concerns the target T1, Prostate-specific antigen (PSA, KLK3). The data set is described as follows: ELONA; rank 2 of 1st generation. Particulars: tags: purified from human semen; Sigma-Aldrich and Scipac; label: 5'-FITC. The procedure: as §1, §2
The target is the same in data set [3]. As to the kind of experiment: ELONA; PSA immobilized on polystyrene plate; TBST with 5 mM KCl, 5 mM MgCl2, pH 7.4, room temp. The note with it: tags: purified from human semen; Sigma-Aldrich and Scipac; label: 5'-FITC; predicted stem-loop. The procedure: as §1
Plate assay for detection of PSA was performed as described above with the following modifications. […] After incubation with HRP-conjugated anti-FITC antibody, chemiluminescence from HRP was measured.
Plate assay was performed to measure PSA concentrations with ΔPSap4#5 selected using GA as the top oligonucleotide of the 4th-generation. […] Then, the PSA concentration was measured by detecting chemiluminescence from HRP-conjugated anti-FITC antibody that represented the binding of FITC-labeled ΔPSap4#5 against PSA immobilized on a well of polystyrene plate (n=2). […]

For data set [4] the target is unchanged. The data set is described as follows: ELONA. Particulars: tags: purified from human semen; Sigma-Aldrich and Scipac; label: 5'-FITC. The procedure: 100 μL amounts of PSA in PBS buffer (pH 7.4), at final concentration of 5 μg/mL, were added to a 96-well polystyrene plate. After 2 h incubation with gentle shaking at 37° C., the supernatant was removed and each well was washed with TBST buffer. Each well was filled with 100 μl of five-fold-diluted blocking reagent N102 and incubated with gentle shaking for 1 h at room temperature, and then washed three times. FITC-labeled aptamer was heat treated in TBS buffer as described above for folding. To each well 100 μL amounts of the FITC-labeled aptamer in TBST buffer (5 μM) were added and incubated for 1 h at room temperature. After washing three times, HRP-conjugated anti-FITC antibody was added to each well and incubated with gentle shaking for 1 h at room temperature. Each well was washed five times and BM chemiluminescence HRP substrate was added, then the HRP activity was measured by a multi label plate counter: Wallac 1420 ARVO MX (Perkin Elmer).
In order to carry out a post-SELEX screening of aptamers using GA with candidates, the five sequences pre-selected through SELEX were used as “parents” to produce a set of 20 oligonucleotide sequences using GA. These oligonucleotides were synthesized and the PSA-binding ability was evaluated by plate assay. The PSA-binding ability was measured by detection chemiluminescence from HRP-conjugated anti-FITC antibody that represented the binding of oligonucleotides against PSA immobilized on a well of polystyrene plate (n=2). The signal intensity was normalized with that of the top oligonucleotide in the 1st-generation. Then, the oligonucleotides were ranked according to PSA-binding ability, and top four ranked sequences were chosen to produce a next set of oligonucleotide sequences. The cycle of oligonucleotide synthesis, plate assay and evolution of the oligonucleotide sequences using GA was repeated three times, with one cycle corresponding to one generation when we assume this process to be the in silico evolution of the PSA-binding aptamer. After one cycle of GA operations, four 2nd-generation sequences, SEQ ID: Nos. 8 to 11, were obtained.

Data set [5] has the same target. The data set is described as follows: ELONA; rank 4 of 1st generation. Particulars: tags: purified from human semen; Sigma-Aldrich and Scipac; label: 5'-FITC. As for the experimental part: as §1, §2
The target is the same in data set [6]. The data set is described as follows: ELONA; rank 3 of 1st generation. Particulars: tags: purified from human semen; Sigma-Aldrich and Scipac; label: 5'-FITC. The procedure: as §1, §2
For data set [7] the target is unchanged. The data set is described as follows: ELONA; rank 7 of 1st generation. The note with it: tags: purified from human semen; Sigma-Aldrich and Scipac; label: 5'-FITC. The procedure:
as §1, §2

The target is the same in data set [8]. The data set is described as follows: ELONA; rank 5 of 1st generation. Particulars: tags: purified from human semen; Sigma-Aldrich and Scipac; label: 5'-FITC. As for the experimental part:
as §1, §2

Data set [9] shares this target. As to the kind of experiment: ELONA; rank 6 of 1st generation. Particulars: tags: purified from human semen; Sigma-Aldrich and Scipac; label: 5'-FITC. The procedure: as §1, §2

T1 sequence (P07288 25-261, one chain of several): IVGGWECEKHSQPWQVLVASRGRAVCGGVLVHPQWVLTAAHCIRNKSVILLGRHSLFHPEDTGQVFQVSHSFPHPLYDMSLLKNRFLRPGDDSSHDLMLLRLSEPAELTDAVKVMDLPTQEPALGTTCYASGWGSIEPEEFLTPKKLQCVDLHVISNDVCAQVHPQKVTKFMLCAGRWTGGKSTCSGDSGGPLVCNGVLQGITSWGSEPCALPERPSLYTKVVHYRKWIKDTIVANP

B1: ΔPSap1#13 (ssDNA)
DNA: TTTTTAATATCAACTTGCCATAAAGGGCCTTT
Consider B1, for which, in data set [1], the binding result is “binds”.

B2: ΔPSap1#3 (ssDNA)
DNA: TTTTTACTTAAGGATTTCCTTTTTTAGCCTTT
Regarding B2, the binding result in data set [2] is reported as “binds”.

B3: ΔPSap4#5 (ssDNA)
DNA: TTTTTAATTAAAGCTCGCCATCAAATAGCTTT
By Kd is commonly meant the concentration at which binding is half-saturated. For B3, the Kd in data set [3] was 54 nM.

B4: ΔPSap4#7 (ssDNA)
DNA: TTTTTAATTAAGGCTCGCCATCAGATAGCTTT
On to B4, for which, in data set [4], the binding signal is 3260 CPS (normalized HRP chemiluminescence).

B5: ΔPSap4#11 (ssDNA)
DNA: TTTTTAATTAAGGCTCGCCATCAAATAACTTT
For the molecule B5, in data set [4], the binding signal is 2150 CPS (normalized HRP chemiluminescence).

B6: ΔPSap4#19 (ssDNA)
DNA: TTTTTAATTAAGGCTCGCCATCAAAAAGCTTT
Regarding B6, the binding signal in data set [4] is 1220 CPS (normalized HRP chemiluminescence).

B7: ΔPSap4#10 (ssDNA)
DNA: TTTTTTATTAAGGCTCGCCATCAAATAGCTTT
For the molecule B7, in data set [4], the binding signal is 3300 CPS (normalized HRP chemiluminescence).

B8: ΔPSap4#14 (ssDNA)
DNA: TTTTTAATTAAGGCTCGCCATCAAAGAGCTTT
As to B8, the binding signal in data set [4] was 2510 CPS (normalized HRP chemiluminescence).

B9: ΔPSap4#1 (ssDNA)
DNA: TTTTTAATTCAGGCTCGCCATCAAATAGCTTT
As to B9, the binding signal in data set [4] is 1800 CPS (normalized HRP chemiluminescence).

B10: ΔPSap2#01 (ssDNA)
DNA: TTTTTGCCTACTGATTTCCTTTTTGAGCCTTT
B10: in data set [4], the binding signal is 1170 CPS (normalized HRP chemiluminescence).

B11: ΔPSap1#5 (ssDNA)
DNA: TTTTTCCTCACCGGGTAACTTCGTGGCCCTTT
On to B11, for which the binding result in data set [5] is given as “binds”.

B12: ΔPSap2#02 (ssDNA)
DNA: TTTTTAATTAAGGATTTCCCGGTTGTATCTTT
Turning to B12, in data set [4], the binding signal was 1550 CPS (normalized HRP chemiluminescence).

B13: ΔPSap2#16 (ssDNA)
DNA: TTTTTACTGTGAACTCGCCATCAAATATCTTT
Turning to B13, the binding signal in data set [4] was 1480 CPS (normalized HRP chemiluminescence).

B14: ΔPSap1#16 (ssDNA)
DNA: TTTTTAATGTCAACTCGCCATCAAATATCTTT
In the case of B14, in [6], the binding result was “binds”.

B15: ΔPSap1#19 (ssDNA)
DNA: TTTTTACTTAATGATTTCACCGGTGGCCCTTT
For the molecule B15, the binding result in [7] is “binds”.

B16: ΔPSap1#12 (ssDNA)
DNA: TTTTTAATATCACCCTTGTTTACTGTCCCTTT
Consider B16, for which the binding result in data set [8] was “binds”.

B17: ΔPSap2#18 (ssDNA)
DNA: TTTTTAATGTCAACGTTGTTTACTGTCCCTTT
In the case of B17, the binding signal in [4] is 1490 CPS (normalized HRP chemiluminescence).

B18: ΔPSap1#15 (ssDNA)
DNA: TTTTTGCCTAATGATTTCCCGGTTGTCTCTTT
B18: the binding result in data set [9] is given as “binds”.
